The data set is described as follows: total protein half-life in vivo (active degradation + dilution); higher = more stable protein.
[1] abbreviates: E. coli NCM3722 delta-clpP delta-lon delta-hslV, growth: N-lim chemostat, doubling time 6 h.
Setting [2] is: E. coli NCM3722 delta-clpP, growth: N-lim chemostat, doubling time 6 h.
Setting [3] is: E. coli NCM3722 delta-hslV, growth: N-lim chemostat, doubling time 6 h.
The mark [4] stands for this setting: E. coli NCM3722 delta-lon, growth: N-lim chemostat, doubling time 6 h.
[5] abbreviates: E. coli NCM3722 delta-smpB, growth: N-lim chemostat, doubling time 6 h.
[6] abbreviates: wild type E. coli NCM3722, growth: C-lim chemostat, doubling time 3 h.
The mark [7] stands for this setting: wild type E. coli NCM3722, growth: C-lim chemostat, doubling time 6 h.
The mark [8] stands for this setting: wild type E. coli NCM3722, growth: C-lim chemostat, doubling time 12 h.
The mark [9] stands for this setting: wild type E. coli NCM3722, growth: N-lim chemostat, doubling time 6 h.
[10] abbreviates: wild type E. coli NCM3722, growth: N-lim chemostat, doubling time 12 h.
Where [11] appears, read: wild type E. coli NCM3722, growth: P-lim chemostat, doubling time 6 h.
Setting [12] is: wild type E. coli NCM3722, growth: P-lim chemostat, doubling time 12 h.

Here are results for 7 sequences from the supplement of paper PMC11246515.

± gives the standard deviation of the averaged measurements.

For “MKNWKTLLLGIAMIANTSFAAPQVVDKVAAVVNNGVVLESDVDGLMQSVKLNAAQARQQLPDDATLRHQIMERLIMDQIILQMGQKMGVKISDEQLDQAIANIAKQNNMTLDQMRSRLAYDGLNYNTYRNQIRKEMIISEVRNNEVRRRITILPQEVESLAQQVGNQNDASTELNLSHILIPLPENPTSDQVNEAESQARAIVDQARNGADFGKLAIAHSADQQALNGGQMGWGRIQELPGIFAQALSTAKKGDIVGPIRSGVGFHILKVNDLRGESKNISVTEVHARHILLKPSPIMTDEQARVKLEQIAADIKSGKTTFAAAAKEFSQDPGSANQGGDLGWATPDIFDPAFRDALTRLNKGQMSAPVHSSFGWHLIELLDTRNVDKTDAAQKDRAYRMLMNRKFSEEAASWMQEQRASAYVKILSN [P0ABZ6]”, the “total protein half-life in vivo” value under setting [1] was 5.66 ± 0.16 h; the “total protein half-life in vivo” value under setting [2] was 6.39 ± 1.2 h; the “total protein half-life in vivo” value under setting [3] turned out to be 6.52 ± 0.36 h; the “total protein half-life in vivo” value under setting [4] was determined as 6.49 ± 0.28 h; the “total protein half-life in vivo” value under setting [5] is 5.7 ± 0.35 h; the “total protein half-life in vivo” value under setting [6] came out at 2.97 ± 0.098 h. Also, the “total protein half-life in vivo” value stood at 6.4 ± 0.42 h under setting [7]; 11.7 ± 0.87 h under setting [8]; 6.23 ± 0.57 h under setting [9]; 13.1 ± 0.99 h under setting [10]; 5.78 ± 0.24 h under setting [11]; 11.7 ± 0.52 h under setting [12].
Consider “MSQDNNFSQGPVPQSARKGVLALTFVMLGLTFFSASMWTGGTLGTGLSYHDFFLAVLIGNLLLGIYTSFLGYIGAKTGLTTHLLARFSFGVKGSWLPSLLLGGTQVGWFGVGVAMFAIPVGKATGLDINLLIAVSGLLMTVTVFFGISALTVLSVIAVPAIACLGGYSVWLAVNGMGGLDALKAVVPAQPLDFNVALALVVGSFISAGTLTADFVRFGRNAKLAVLVAMVAFFLGNSLMFIFGAAGAAALGMADISDVMIAQGLLLPAIVVLGLNIWTTNDNALYASGLGFANITGMSSKTLSVINGIIGTVCALWLYNNFVGWLTFLSAAIPPVGGVIIADYLMNRRRYEHFATTRMMSVNWVAILAVALGIAAGHWLPGIVPVNAVLGGALSYLILNPILNRKTTAAMTHVEANSVE [P0AA82]”, for which the “total protein half-life in vivo” value under setting [2] is 0.878 ± 0.056 h and the “total protein half-life in vivo” value under setting [6] was determined as 2.01 h.
Regarding “MGLFDKLKSLVSDDKKDTGTIEIIAPLSGEIVNIEDVPDVVFAEKIVGDGIAIKPTGNKMVAPVDGTIGKIFETNHAFSIESDSGVELFVHFGIDTVELKGEGFKRIAEEGQRVKVGDTVIEFDLPLLEEKAKSTLTPVVISNMDEIKELIKLSGSVTVGETPVIRIKK”, the “total protein half-life in vivo” value was found to be 5.14 ± 0.12 h under setting [1]; 4.93 ± 0.37 h under setting [2]; 4.53 ± 0.15 h under setting [3]; 4.82 ± 0.3 h under setting [4]; 4.415 ± 0.029 h under setting [5]; 3.29 ± 0.1 h under setting [6]. Moreover, the “total protein half-life in vivo” value runs as follows: under setting [7], 5.34 ± 0.22 h; under setting [8], 10.6 ± 1.7 h; under setting [9], 4.48 ± 0.28 h; under setting [10], 7.87 ± 0.1 h; under setting [11], 5.64 ± 0.17 h; under setting [12], 11.1 ± 0.48 h.
Regarding “MSANENNLIWIDLEMTGLDPERDRIIEIATLVTDANLNILAEGPTIAVHQSDEQLALMDDWNVRTHTASGLVERVKASTMGDREAELATLEFLKQWVPAGKSPICGNSIGQDRRFLFKYMPELEAYFHYRYLDVSTLKELARRWKPEILDGFTKQGTHQAMDDIRESVAELAYYREHFIKL [P0A784]”, the “total protein half-life in vivo” value by setting is: under setting [2], 4.86 ± 0.7 h; under setting [3], 4.688 ± 0.041 h; under setting [4], 6.132 ± 0.0019 h; under setting [5], 4.64 ± 0.34 h; under setting [6], 3.41 ± 0.36 h; under setting [8], 13 ± 1.9 h. Further, the “total protein half-life in vivo” value under setting [9] came out at 4.65 ± 0.63 h, the “total protein half-life in vivo” value under setting [10] is 8.25 ± 0.81 h, the “total protein half-life in vivo” value under setting [11] is 5.87 ± 0.32 h and the “total protein half-life in vivo” value under setting [12] was determined as 13.6 ± 0.93 h.
Turning to “MTLNKTDRIVITLGKQIVHGKYVPGSPLPAEAELCEEFATSRNIIREVFRSLMAKRLIEMKRYRGAFVAPRNQWNYLDTDVLQWVLENDYDPRLISAMSEVRNLVEPAIARWAAERATSSDLAQIESALNEMIANNQDREAFNEADIRYHEAVLQSVHNPVLQQLSIAISSLQRAVFERTWMGDEANMPQTLQEHKALFDAIRHQDGDAAEQAALTMIASSTRRLKEIT”, the “total protein half-life in vivo” value by setting is: under setting [1], 5.42 ± 0.19 h; under setting [2], 5.12 ± 0.7 h; under setting [3], 4.89 ± 0.076 h; under setting [4], 5.07 ± 0.42 h; under setting [5], 4.36 ± 0.15 h; under setting [6], 2.87 ± 0.24 h. Moreover, the “total protein half-life in vivo” value is 5.54 ± 0.089 h under setting [7]; 9.94 ± 0.54 h under setting [8]; 4.79 ± 0.079 h under setting [9]; 7.99 ± 0.64 h under setting [10]; 4.902 ± 0.047 h under setting [11]; 10.15 ± 0.052 h under setting [12].
As for “MKLNATYIKIRDKWWGLPLFLPSLILPIFAHINTFAHISSGEVFLFYLPLALMISMMMFFSWAALPGIALGIFVRKYAELGFYETLSLTANFIIIIILCWGGYRVFTPRRNNVSHGDTRLISQRIFWQIVFPATLFLILFQFAAFVGLLASRENLVGVMPFNLGTLINYQALLVGNLIGVPLCYFIIRVVRNPFYLRSYYSQLKQQVDAKVTKKEFALWLLALGALLLLLCMPLNEKSTIFSTNYTLSLLLPLMMWGAMRYGYKLISLLWAVVLMISIHSYQNYIPIYPGYTTQLTITSSSYLVFSFIVNYMAVLATRQRAVVRRIQRLAYVDPVVHLPNVRALNRALRDAPWSALCYLRIPGMEMLVKNYGIMLRIQYKQKLSHWLSPLLEPGEDVYQLSGNDLALRLNTESHQERITALDSHLKQFRFFWDGMPMQPQIGVSYCYVRSPVNHIYLLLGELNTVAELSIVTNAPENMQRRGAMYLQRELKDKVAMMNRLQQALEHNHFFLMAQPITGMRGDVYHEILLRMKGENDELISPDSFLPVAHEFGLSSSIDMWVIEHTLQFMAENRAKMPAHRFAINLSPTSVCQARFPVEVSQLLAKYQIEAWQLIFEVTESNALTNVKQAQITLQHLQELGCQIAIDDFGTGYASYARLKNVNADLLKIDGSFIRNIVSNSLDYQIVASICHLARMKKMLVVAEYVENEEIREAVLSLGIDYMQGYLIGKPQPLIDTLNEIEPIRESA”, the “total protein half-life in vivo” value worked out at 5.56 h under setting [1]; 2.98 h under setting [6]; 5.24 h under setting [7]; 9.12 h under setting [8]; 4.99 h under setting [9]; 6.22 h under setting [10]. Under setting [12], the “total protein half-life in vivo” value was 11.5 h.
“MKKQRNLRSMAAQAVEQVVEQGQSLSNILPPLQQKVSDKDKALLQELCFGVLRTLSQLDWLINKLMARPMTGKQRTVHYLIMVGLYQLLYTRIPPHAALAETVEGAIAIKRPQLKGLINGVLRQFQRQQEELLAEFNASDARYLHPSWLLKRLQKAYPEQWQSIVEANNQRPPMWLRINRTHHSRDSWLALLDEAGMKGFPHADYPDAVRLETPAPVHALPGFEDGWVTVQDASAQGCMTWLAPQNGEHILDLCAAPGGKTTHILEVAPEAQVVAVDIDEQRLSRVYDNLKRLGMKATVKQGDGRYPSQWCGEQQFDRILLDAPCSATGVIRRHPDIKWLRRDRDIPELAQLQSEILDAIWPHLKTGGTLVYATCSVLPEENSLQIKAFLQRTADAELCETGTPEQPGKQNLPGAEEGDGFFYAKLIKK”: the “total protein half-life in vivo” value worked out at 5.88 ± 1 h under setting [1]; 5.642 ± 0.039 h under setting [2]; 5.05 ± 1.1 h under setting [3]; 5.17 ± 0.74 h under setting [4]; 4.92 ± 0.25 h under setting [5]; 2.88 ± 0.45 h under setting [6]. In addition, the “total protein half-life in vivo” value amounted to 6.66 ± 1.9 h under setting [7]; 12.4 ± 0.73 h under setting [8]; 6.14 ± 0.58 h under setting [9]; 10.9 ± 0.76 h under setting [10]; 6.96 ± 0.51 h under setting [11]; 12.7 ± 0.89 h under setting [12].
